Source: article PMC11532467

Biological target: Glycylhalorhodopsin from Salinarimonas soli (SsGHR) (Salinarimonas soli)
Assay: crystal structure

Glycylhalorhodopsin from Salinarimonas soli (SsGHR) (natural protein)
stoichiometry N: 3
